Data from patent US20240366624A1, “METHODS AND COMPOSITIONS FOR TREATING THROMBOTIC DISEASE” (Washington University, priority 2023, published 2024).
Substitutions are numbered along the chain they refer to.

Columns and labels:
Ero1α KO mice = experiment: Intravital microscopy, laser-induced cremaster arteriolar injury, rescue in Ero1α KO mice; assay type: in vivo, mouse; conditions: 4 μg/g BW into Ero1α KO mice
Protocol: FIG. 2 (A-C): DyLight 649-conjugated anti-CD42c and Alexa 488-conjugated rabbit IgG or polyclonal anti-ERO1α antibodies (0.3 μg/g body weight [BW]) were injected into wild type (WT) mice for intravital microscopy. Platelet accumulation and extracellular Ero1α were detected at the site of laser-induced cremaster arteriolar injury. FIG. 2A: Representative images. FIG. 2B and FIG. 2C: The median integrated fluorescence intensities of anti-CD42c (F platelet) and anti-ERO1α antibodies (F Ero1α; n=41-43 arterioles in 6 WT mice per group). FIG. 2(D-F): Intravital microscopy with WT control and Ero1α conditional knockout (CKO) and knockout (KO) mice. After laser-induced cremaster arteriolar injury, platelet accumulation and fibrin generation were detected by injection of DyLight 649-conjugated anti-CD42c and Alexa 488-conjugated anti-fibrin antibodies, respectively. FIG. 2D: Representative images. FIG. 2E and FIG. 2F: The median integrated fluorescence intensities of anti-CD42c (F platelet) and anti-fibrin (F fibrin) antibodies (n=36-44 arterioles in 6 mice per group). Quantification of the antibody signal at a different time point after laser injury. FIG. 2G and FIG. 2H: Ero1α KO mice were treated with recombinant wtERO1α or mutant ERO1α (m ERO1a) (Cys94Ser), 4 μg/g BW. After laser injury, platelets and fibrin were detected as described above (n=36-38 arterioles in 6 mice per group). FIG. 2I: The time to occlusion (TTO) was measured by a Doppler blood flow meter in WT control, Ero1α CKO/KO, and β3 KO mice after the application of 6.5% FeCl3 to a carotid artery (n=8-11 mice per group). FIG. 2J and FIG. 2K: After amputating the tail tip (5 mm), tail bleeding times and hemoglobin (Hb) contents were measured in WT control, Ero1α CKO/KO, and β3 KO mice (n=8-9 mice per group). Bars represent the median value. P values were determined by Mann-Whitney U test (FIG. 2E, FIG. 2F, and FIG. 2(1-K)) or ANOVA and Dunn test (FIG. 2G and FIG. 2H).
Intravital microscopy was performed in a mouse model of laser-induced cremaster arteriolar injury as previously described. WT (C57BL/6), littermate WT control, and CKO and KO male mice (8-10 weeks old) were anesthetized with intraperitoneal injection of ketamine and xylazine. The cremaster muscle was exteriorized and superfused with 37° C. bicarbonate-buffered saline throughout the experiment. Arteriolar wall injury was induced by laser ablation (Photonics Instruments) as previously described. Multiple thrombi were generated in at least 3 to 4 different arterioles of 1 mouse, with new thrombi formed upstream of earlier thrombi to minimize any contribution from thrombi generated earlier in the mouse. […]

Ero1α-null platelets = experiment: Platelet aggregation, Ero1α-null platelets; assay type: cell-based, mouse; conditions: 50 μg/mL protein, 0.025 U/mL thrombin
Protocol: FIG. 7(A-L) is an exemplary embodiment of crucial intracellular ERO1α (endoplasmic reticulum oxidoreductase 1a) for platelet activation, aggregation, and thrombus formation in accordance with the present disclosure. FIG. 7A: Ex vivo platelet thrombus formation in a flow chamber assay. Adherent and aggregated platelets were stained with rhodamine-conjugated phalloidin and imaged by confocal microscopy. Representative images (bar, 10 μm). Surface coverage and thrombus volume were measured (mean±SD, n=4). FIG. 7(B-E): Aggregation and ATP secretion of wild type (WT) and Ero1α-null platelets were induced by 0.025 U/mL thrombin, 0.05 μg/mL CRP (collagen-related peptide), 0.5 μM A23187, or 2.5 μM ADP. […] Quantification graphs of aggregation and ATP secretion are presented as the mean±SD (n=3-4). FIG. 7G and FIG. 7H: P-selectin exposure and αIIbβ3 integrin activation of WT and Ero1α-null platelets were analyzed by flow cytometry. The data are presented as the geometric mean fluorescence intensity (MFI) value (mean±SD, n=3-4). […] P values determined by unpaired Student t test (FIG. 7(A-E) and FIG. 7(G-1)), ANOVA and Dunnett test (FIG. 7F), or Mann-Whitney U test (FIG. 7K and FIG. 7L). […]
FIG. 10(A-E) is an exemplary embodiment of 15E9 not affecting platelet activation and aggregation in accordance with the present disclosure. […] P values determined by unpaired Student's t-test (vs. mIgG1). […]

B1: wtERO1α: recombinant wild-type ERO1α (protein)
chain: EEQPPETAAQRCFCQVSGYLDDCTCDVETIDRFNNYRLFPRLQKLLESDYFRYYKVNLKRPCPFWNDISQCGRRDCAVKPCQSDEVPDGIKSASYKYSEEANNLIEECEQAERLGAVDESLSEETQKAVLQWTKHDDSSDNFCEADDIQSPEAEYVDLLLNPERYTGYKGPDAWKIWNVIYEENCFKPQTIKRPLNPLASGQGTSEENTFYSWLEGLCVEKRAFYRLISGLHASINVHLSARYLLQETWLEKKWGHNITEFQQRFDGILTEGEGPRRLKNLYFLYLIELRALSKVLPFFERPDFQLFTGNKIQDEENKMLLLEILHEIKSFPLHFDENSFFAGDKKEAHKLKEDFRLHFRNISRIMDCVGCFKCRLWGKLQTQGLGTALKILFSEKLIANMPESGPSYEFHLTRQEIVSLFNAFGRISTSVKELENFRNLLQNIH
Ero1α KO mice
  rescue of fibrin generation: minimal rescue effect
  rescue of platelet thrombus formation: minimal rescue effect
Ero1α-null platelets
  rescue of the defect in Ero1α-null platelet aggregation: did not rescue

B2: mERO1α: activity-null ERO1α-Cys94Ser (protein)
chain: B1 chain with C71S
Ero1α KO mice
  rescue of fibrin generation: did not show any effect
  rescue of platelet thrombus formation: did not show any effect
